According to paper PMC12134178:

Molecular target: mCerulean3-BaxΔCTS
Experiment: FRET or BRET; quantitative fast FLIM-FRET (qF3) in live HCT116 DKO cells stably expressing the donor ^CBaxΔCTS (1 to 3 µM) and transiently the Venus acceptor (0 to 50 µM); 10 µM Q-VD-OPH; fit to a Hill equation with h = 1; apparent Kd

Kd [µM]	Substance
16.3	Venus-tBid (domain or fragment)
17	Venus-tBid(Nes2-BH3 C-ter) chimera (from UniProt P70444 1-81; P70444 101-195)
